The target in assay [1] is T1, MSRV complete ENV protein (ENV-T), recombinant from E. coli (MSRV (Multiple Sclerosis associated …)).
T1 chain: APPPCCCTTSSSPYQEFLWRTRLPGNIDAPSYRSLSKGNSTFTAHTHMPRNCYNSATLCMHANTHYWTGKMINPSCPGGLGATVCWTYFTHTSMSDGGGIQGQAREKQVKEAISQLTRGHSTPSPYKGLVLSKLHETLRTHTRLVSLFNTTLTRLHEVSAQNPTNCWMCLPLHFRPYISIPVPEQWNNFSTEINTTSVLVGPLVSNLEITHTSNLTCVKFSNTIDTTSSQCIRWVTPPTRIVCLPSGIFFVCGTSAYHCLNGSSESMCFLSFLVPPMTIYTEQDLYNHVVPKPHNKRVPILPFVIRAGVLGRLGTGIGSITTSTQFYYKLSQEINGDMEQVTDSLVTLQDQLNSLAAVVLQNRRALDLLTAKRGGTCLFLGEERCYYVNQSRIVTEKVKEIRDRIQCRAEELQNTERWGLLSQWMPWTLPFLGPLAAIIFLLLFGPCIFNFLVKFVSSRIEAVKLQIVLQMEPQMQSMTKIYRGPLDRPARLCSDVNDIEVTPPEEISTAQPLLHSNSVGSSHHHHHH
As to the kind of experiment: cell-based or functional assay.

Assay [2] addresses T2, MSRV ENV surface domain fragment (ENV-SU), recombinant from E. coli (MSRV (Multiple Sclerosis associated …)).
T2 chain: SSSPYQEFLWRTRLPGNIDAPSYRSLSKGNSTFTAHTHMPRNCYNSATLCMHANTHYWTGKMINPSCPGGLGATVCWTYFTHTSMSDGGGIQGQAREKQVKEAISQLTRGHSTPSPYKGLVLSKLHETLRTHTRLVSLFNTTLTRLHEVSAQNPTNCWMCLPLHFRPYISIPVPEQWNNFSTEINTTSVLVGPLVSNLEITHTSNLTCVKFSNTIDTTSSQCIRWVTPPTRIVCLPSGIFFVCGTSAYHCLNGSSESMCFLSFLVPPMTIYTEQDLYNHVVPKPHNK
As to the kind of experiment: cell-based or functional assay.

B1: Chimeric GNb AC1 IgG4 (human IgG4 constant regions with murine VH and VL) (antibody, V domains shown)
VH: QVQLQQSGAELVRPGASVTLSCKASGYTFTDYEMHWVKQTPVHGLEWIGAVAPETGGTAYNQKFKGKATLTAAKSSSTAYMELRSLTSEDSAVYYCTSTVVPFAYWGQGTLVTVSA
VL: QIVLTQSPAIMSASPGEKVTISCSASSSVSYMYWYQQKPGSSPKAWIYRTSNLASGVPGRFSGSGSGTSYSLTISSMEAEDAATYYCQQYQSLPLTFGSGTKLEIKR
notes: also called GNbAC1 chimeric IgG4; GNbAC1-IgC4
For B1, in assay [1], the “IL-6 at 24 h in PBMC culture with ENV-T 0.1 ug/ml, MAb ratio 10/1 (no antibody: 4363)” value turned out to be 2270. In addition, the “IFN-g at 72 h in PBMC culture with ENV-SU 0.5 ug/ml, MAb ratio 10/1 (no antibody: 336)” value in assay [2] worked out at 384.
